{"source": "paper PMC1931443", "about": "“Vertebrate DM domain proteins bind similar DNA sequences and can heterodimerize on DNA”", "binders": {"B1": {"name": "DMRT1 site -8G (dsDNA)", "DNA 1": "TCGAGATGTGATACATTGTTGC", "DNA 2": "TCGAGCAACAATGTATCACATC"}, "B2": {"name": "1RE (Figure 2) (dsDNA)", "DNA 1": "TCGAGCCCGCAACAATGTTGCAAATC", "DNA 2": "TCGAGATTTGCAACATTGTTGCGGGC"}, "B3": {"name": "3RE (dsDNA)", "DNA 1": "TCGAGAACAATGTAACAATTTCGCCC", "DNA 2": "TCGAGGGCGAAATTGTTACATTGTTC"}}, "key": {"DMRT5 [1]": {"molecular_target": "T1, DMRT5 (mouse, UniProt A2A9A2 1-531)", "T1 sequence (A2A9A2 whole entry)": "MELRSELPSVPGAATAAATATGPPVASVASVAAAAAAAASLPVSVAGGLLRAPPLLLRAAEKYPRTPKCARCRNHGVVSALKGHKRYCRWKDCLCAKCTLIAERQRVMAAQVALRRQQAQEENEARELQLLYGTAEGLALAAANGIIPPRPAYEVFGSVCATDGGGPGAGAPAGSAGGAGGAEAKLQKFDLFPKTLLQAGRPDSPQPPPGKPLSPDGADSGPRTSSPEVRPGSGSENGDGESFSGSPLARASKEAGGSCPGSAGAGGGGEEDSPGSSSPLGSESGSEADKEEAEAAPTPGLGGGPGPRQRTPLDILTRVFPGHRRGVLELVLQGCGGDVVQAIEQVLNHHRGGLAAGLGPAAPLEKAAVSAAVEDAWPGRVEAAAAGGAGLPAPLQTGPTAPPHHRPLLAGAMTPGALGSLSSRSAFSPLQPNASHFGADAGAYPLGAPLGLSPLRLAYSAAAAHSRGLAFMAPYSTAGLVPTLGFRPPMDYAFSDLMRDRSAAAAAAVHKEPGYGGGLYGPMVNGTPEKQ", "assay": "competition; 40-fold excess; tolerated; EMSA: 10 mM Tris-HCl pH 7.9, 100 mM KCl, 10% glycerol, 5 mM MgCl2, 1 mM spermidine, 0.075% Triton-X-100, 1 mM DTT, 1 ug BSA, 0.1 ug dI-dC, 75 ng plasmid DNA, 0.5 ng probe, 4 ul IVT mix in 20 ul, on ice 10 min; gel at 4 C; IVT with 20 uM ZnSO4", "settings": "protein: ivt; tags: N-terminal Myc; 5' overhang 4 nt both ends"}, "DMRT5 [2]": {"molecular_target": "T1, DMRT5", "assay": "EMSA supershift; 9E10; EMSA: 10 mM Tris-HCl pH 7.9, 100 mM KCl, 10% glycerol, 5 mM MgCl2, 1 mM spermidine, 0.075% Triton-X-100, 1 mM DTT, 1 ug BSA, 0.1 ug dI-dC, 75 ng plasmid DNA, 0.5 ng probe, 4 ul IVT mix in 20 ul, on ice 10 min; gel at 4 C; IVT with 20 uM ZnSO4", "settings": "protein: ivt; tags: N-terminal Myc; label: 32P (Klenow fill-in); 5' overhang 4 nt both ends (filled in on labeling)"}, "DMRT3 [3]": {"molecular_target": "T2, DMRT3 (mouse, UniProt Q80WT2 1-476)", "T2 sequence (Q80WT2 whole entry)": "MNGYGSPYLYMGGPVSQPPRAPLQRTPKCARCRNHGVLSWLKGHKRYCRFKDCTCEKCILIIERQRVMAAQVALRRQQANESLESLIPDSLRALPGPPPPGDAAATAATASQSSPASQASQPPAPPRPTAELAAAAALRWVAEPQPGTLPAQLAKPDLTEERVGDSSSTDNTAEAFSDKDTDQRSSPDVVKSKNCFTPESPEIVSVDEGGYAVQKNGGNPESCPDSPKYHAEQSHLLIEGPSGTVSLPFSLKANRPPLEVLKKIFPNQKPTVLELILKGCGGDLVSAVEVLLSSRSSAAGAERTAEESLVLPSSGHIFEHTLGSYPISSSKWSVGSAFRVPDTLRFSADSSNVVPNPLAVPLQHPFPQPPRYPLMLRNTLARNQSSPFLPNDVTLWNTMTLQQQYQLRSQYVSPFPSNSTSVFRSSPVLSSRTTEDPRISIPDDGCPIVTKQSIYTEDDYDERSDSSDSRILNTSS", "assay": "EMSA supershift; mainly dimer; 9E10; EMSA: 10 mM Tris-HCl pH 7.9, 100 mM KCl, 10% glycerol, 5 mM MgCl2, 1 mM spermidine, 0.075% Triton-X-100, 1 mM DTT, 1 ug BSA, 0.1 ug dI-dC, 75 ng plasmid DNA, 0.5 ng probe, 4 ul IVT mix in 20 ul, on ice 10 min; gel at 4 C; IVT with 20 uM ZnSO4", "settings": "protein: ivt; tags: N-terminal Myc; label: 32P (Klenow fill-in); 5' overhang 4 nt both ends (filled in on labeling)"}, "DMRT4": {"molecular_target": "DMRT4 (mouse, UniProt Q8CFG4 1-490)", "sequence (Q8CFG4 whole entry)": "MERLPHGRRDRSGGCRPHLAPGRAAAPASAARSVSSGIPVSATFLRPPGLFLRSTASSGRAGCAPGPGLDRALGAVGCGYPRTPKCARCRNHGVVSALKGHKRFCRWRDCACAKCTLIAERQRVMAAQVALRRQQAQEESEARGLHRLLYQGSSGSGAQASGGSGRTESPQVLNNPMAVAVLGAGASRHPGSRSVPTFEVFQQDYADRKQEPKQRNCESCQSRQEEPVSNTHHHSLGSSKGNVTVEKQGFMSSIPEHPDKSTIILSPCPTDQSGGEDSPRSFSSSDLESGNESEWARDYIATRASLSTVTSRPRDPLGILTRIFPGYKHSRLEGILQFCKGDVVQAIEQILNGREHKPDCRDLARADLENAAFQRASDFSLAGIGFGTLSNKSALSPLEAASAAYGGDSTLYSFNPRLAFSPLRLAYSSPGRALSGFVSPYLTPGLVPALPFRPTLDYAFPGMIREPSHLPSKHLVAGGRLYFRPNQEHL", "assay": "EMSA; complex fails to enter gel (possible aggregate); EMSA: 10 mM Tris-HCl pH 7.9, 100 mM KCl, 10% glycerol, 5 mM MgCl2, 1 mM spermidine, 0.075% Triton-X-100, 1 mM DTT, 1 ug BSA, 0.1 ug dI-dC, 75 ng plasmid DNA, 0.5 ng probe, 4 ul IVT mix in 20 ul, on ice 10 min; gel at 4 C; IVT with 20 uM ZnSO4", "settings": "protein: ivt; tags: C-terminal Myc; chain copies: 2; label: 32P (Klenow fill-in); 5' overhang 4 nt both ends (filled in on labeling)"}, "DMRT3 [4]": {"molecular_target": "T2, DMRT3", "assay": "EMSA supershift; primarily monomer; 9E10; EMSA: 10 mM Tris-HCl pH 7.9, 100 mM KCl, 10% glycerol, 5 mM MgCl2, 1 mM spermidine, 0.075% Triton-X-100, 1 mM DTT, 1 ug BSA, 0.1 ug dI-dC, 75 ng plasmid DNA, 0.5 ng probe, 4 ul IVT mix in 20 ul, on ice 10 min; gel at 4 C; IVT with 20 uM ZnSO4", "settings": "protein: ivt; tags: N-terminal Myc; label: 32P (Klenow fill-in); 5' overhang 4 nt both ends (filled in on labeling)"}}}
{"binder": "B1", "values": [{"measurement": "binding result", "setting": "DMRT5 [1]", "result": "binds"}]}
{"binder": "B2", "values": [{"measurement": "binding result", "setting": "DMRT5 [2]", "result": "binds"}, {"measurement": "binding result", "setting": "DMRT3 [3]", "result": "binds"}, {"measurement": "binding result", "setting": "DMRT4", "result": "binds"}]}
{"binder": "B3", "values": [{"measurement": "binding result", "setting": "DMRT3 [4]", "result": "binds"}]}
